This data set is described as follows: soluble fraction after stress (log2 fold change); higher = more stays soluble; pooled small domains, quantitative proteomics. Conditions: stress: 75 degC.
For “HMRKLHFVMSEIYEDHPWIGSKLQDVFLPKDIRVVLVERDSKQFMPNGQTLFELGDRLTLSALHYDPA”, the “soluble fraction (log2)” value was -2.8.
The figure for “HMRKLTDRQRQILDLIKTIIAETGAPPTRAEISTALGFKSANAAQEHLQALAQKGMIDLVSGASRGIRLRG” is -0.99; for “HMRKMELTEAAEKLIEEPDVVSAYRNMQQIFQQWREIGPVPREQRDEVWSHFKDLMTQVNRRHQAHFEN” it is 0.113.
The figure for “HMRKPLDQSWVPDDDAMKILTNSGIEKEFIKNEIPEFILYWSDKGEISDSWNTKFISQIRRQWAKNQ” is -0.0241.
Turning to “HMRKSAVSSTLTSIEGIGATRAKALLKHFKTVAAVSEADLKELEDAPGMTRPSALRVYEYFHGK”, the “soluble fraction (log2)” value was -0.342.
Consider “HMRKSLGEIVFDRMERAIKSGAYSPDERLPTELDLAAEFEVSRPVIRDALKRLRERGLIYSRQGAGSFVRA”, for which the “soluble fraction (log2)” value is -0.813.
For “HMRKTIQDFLSSNKVDIAKLLTLALEKTKEDLYKNLSYNLTNKELEKLKLLIKKREQGIPFAYLS” the value was -0.348; for “HMRLADHVVEKLLALVQERGLQPGQKLPAERQLAEVLGVSRTSVREAIQKLVSQGVLSARRGDGTYVQS”, -0.302; for “HMRLANGIGTVYKLSGNRRNPYIVRKTTGWEIDEESGKAKQKYITIGYAPTRAKGLEMLMDYNKNP”, -0.895.
For “HMRLDHIFSVVERLKGVSLGAGDRLEVQKYEDLLTVYKSKNALSSEEAQTLNDILASLLKMMAKYD” the value was -1.05; for “HMRLDSELVSARLHRFMGTNRKPDGEIVEKIAAILEGHPIETLDAFLQSLNGRKIKSYGFFPTVLRREIAN”, -0.319; for “HMRLEEVSVPQRLLAAIAEEREVQIGIVDGRGGTRVLRVEPLALEGGRLRARDVESGEEFTVLIHRVLL”, -1.19.
The figure for “HMRLLAESIARGLDPEGSGGLWAKEAGAEALKLMETLAAEAPHGGSFTAAAYRDLFESLVHQGEVREA” is -0.00417; for “HMRLLGEPLAGRLKKDVPVVTGRSTESKAIAQFFELRWSHLPDPEARTISVASGRIDFMDVGATRFSLR” it is 0.0725.
As to “HMRLSDSEFESIENAIKEKLENSALTADVLVKELSFDEDKIWKVIRWLEDAEKISEDEAGTLLWKPR”, the “soluble fraction (log2)” value was -0.0971.
For “HMRLSESLLDDIPGIGAARKRALLQSFGSVRKLRHADAEEIAAKVPGIGLNFAEKIVEALRKK” the value was 0.391; for “HMRLTTTPKTARGLTTMNRIIRAAEVEFGRKGYHYTGITDIAQRAKVASGTIYLYFTDKYSLYVHLLT”, 0.159; for “HMRLYTQDVAVLNRDVIQGEVITSDMVTTVNVHKRTVPTGALNLSEIPGNVAKFNIPASIPITASMVTK”, -0.0186.
For “HMRMLLKELLIQYEVKNDKSHVEVAKEVGVSLSTYYRWLNGESLHLKKRTIDRLSEVLHYDINQVVEES” the value was -2.52; for “HMRMLSEGAQRMLRGLAVLEEASADRLLELHQGDYPGFVRSLFALESAGLFQRNGSGTWIRR”, -0.91; for “HMRMNASERQNQIVDLLSQNGVMKIMDIADHFNVSRETIRRDLIILEDDNRIKKWFGGVISAN”, -0.706.
The figure for “HMRMQRYYLTDMSEKGREALPGVLDEMGYAGRYTMSDNSIAINSNMIVLSKAIKRAEDIAHNE” is -0.089; for “HMRMRPNERQKRIIELLSFRRHETIGNFANEFGVSRDTIKRDIITLQEEYPIISERGYEGGISLPDGYYI” it is -1.08.
On to “HMRMSLDEAKAVVLPIGEYKGRNMGEVLAIKPELIDFYASQKFNSSKYPYLKEAAQVILENQ”, for which the “soluble fraction (log2)” value is 0.114.
For “HMRMSPRERKIYQFIENHPGTKSGEMAEKLGIPLPTIKRLLSDMVASKLLQKHGTGAGTNYSIEE” the value was 0.43; for “HMRMSQLSRLISILTLLKSKRLLTATELAEKYDVSIRTVYRDIRKLEEAGIPVYTIEGRGYSLMDNYT”, -1.42.
On to “HMRNANENTLKDLPVAVPNIHVSNIEEKKDFHLIQLEYSQEFDPREDLFNFAVNSSWVILKMTPT”, for which the “soluble fraction (log2)” value turned out to be 0.215.
For “HMRNDIFDQLTEREMQILQEVAKGYRNKQIADHLFISESTVKVHMKSLLKKLQVPSRTAATVLYLERYG” the value was -1.55.
Turning to “HMRNEFEAHSDGTRIQLNDRSKATFSVYDVQGRLIHSFQDFSGSSFNIEPKNQLLIITRETAEGVSVKKLV”, the “soluble fraction (log2)” value was 0.34.
As for “HMRNKTVKEVLDYIEKNSEFIFFYYSKAIDTKRIVSLSVKDQPITVILDQLFKNTDVLYEIKDRQISLKRE”, the “soluble fraction (log2)” value is 0.1.
The figure for “HMRNTETMKEIQAFVEDYFFEYHQSPSMQKVADAIGTSKSTAYYYVMEMARNGMLHYDGKTIETPHTQKS” is -0.82.
For “HMRPDDPYLVIGASREMGDEELKRHYRRLVAETHPDRGIARGLPAEAIAIATRRLAAINAAWDAIERERGL” the value was 0.000257; for “HMRPDSFEAGEAEAGSRLDRLLAARLGIPRNQVQQWIGGGRVTVDAEPVRASLVVRAGMRIAWDPPPPP”, -1.56.
For “HMRPEKLVLKALRGAHGPLSAEEVAGRIEADGGAGLDVARVEHVLGQLERSGTVAALGGGKYLALR” the value was 0.692.
As to “HMRPHDDHLREQLLGIATETIARTGVEGLSLRTLATDAGTSTSAVYQLFGSRAALLDAVYLRVLE”, the “soluble fraction (log2)” value was -1.47.
For “HMRPLISQTLRIDRGEGDIAGPLGVLAKEYPHLSMGSYPFQKDGIYGAHVVIRGSDPGMVEAAMDKLKAAF” the value was 0.338.
Take “HMRPLTPLEKLTPDADGKYYHIVQSGETLSWIAKLYETTAEKLQAWNNLFSSDIFPNQKLLLQVTPP”: the “soluble fraction (log2)” value is 0.134.
The figure for “HMRPPLEWGTHGEITTRTVASGYVRASARVRLWDGELQRMTATASTASDARASLQHRIAERLRFSEL” is -1.45.
For “HMRPPLRAAIIDHLARDWHTVAELARLLPASGAHVSRLVVELRAVGAVDERISHPDWPGNRPTEYRLRRA” the value was -3.57; for “HMRPTHYSGPSVIAMINNRVWFSDGSRLAPGEHHDDLEVVGLSPPWSAKVRWQGVEFDVGLFE”, -2.35; for “HMRQGHLDLLRQIHALPPSTREVVYLRAFGGLSFREIGDVLGRTETWARVTFYRGKEALRKG”, -0.106.
“HMRQHHMIISTKLGTPKEELAKLVSGFEDQGLRVSVITGTDYTVIGLVGDTTHLDEKRIRANPYVDNVQRV”: the “soluble fraction (log2)” value is -0.813.
For “HMRQIMIIVLKSTATKEDSLLFKNKLEQEYGVKVNEWTGVESTVLGLIGDTTKIDIDYISAQDIVESVKRV” the value was -2.27.
Turning to “HMRQKTTFFATESFELPNGEKVEEGQIFRLNDGAFNIAEQQGITRFLTSEANYGRMIAANAEVEKAKLDA”, the “soluble fraction (log2)” value worked out at 0.605.
The figure for “HMRQLISIYNNTIGADEIDQMRNILSNSGYKEGVDFAVQTADKKSVILVRRDLAGMIQEQLSGEGLPS” is -0.119; for “HMRQNPESFLNHKVKKNESLESLTKKYELTENEIIFYNPLIQKIGLKKRMILKIPIYNNQNLVTKSVD” it is -0.15; for “HMRQPRGQRVTVREASSLLPFLFAHLTDRSRSAVKSLLRHGQIWVNGRVTTHFDMPLRPGDTVLISHERG” it is -1.33.
For “HMRQSQEVSGGERYRRLTAYLDTHPFITRKEYSGITGLLKNKALNDLNLLVNKGYLEAMGRGSHKVYVRPM” the value was -0.86; for “HMRQSSLRTRELLIDAARQLFARFGVEKTTMNDIAEASKRGRRTVYMYFNSKSDVFYAVVGRE”, -0.0881.
For the sequence “HMRQVFPNPSSSQIKLASSRIGQAFSILDQQGRVVLSGKVSEEAVIALENLAKGIYVLKIGSWSETILK”, the “soluble fraction (log2)” value was -2.89.
For “HMRRATLERLANNTAEKAIRYKRSLALEPMNPQERRIIHAALQEVEGVSTHSVGTEPNRKVIVVPDGV” the value was -0.329.
For “HMRRFEFSDGSSNKFWQITRDGTSLTVTFGKIGTAGQTQLKELATEAAAIAEHDKLVKEKTKKGYAEVG” the value was -0.174; for “HMRRGFGYVRKLPSGRWQASFVGPDLARHSAPHTFETKGDAEGWLGRRQADVVAGEWRPPVP”, -0.00612; for “HMRRISLEDWQLIESLIRRDWSPEQISLWLKKYKKIRVSHEWIYQYILKDKSKAGDLHTHLRSR”, 0.00689.
For “HMRRKNQVQSSYQKRENGTYTVRFFLSDDMGSIMDLQLMATREDMARALRERFLKDPEKIYGQIMQMLLR” the value was -1.23; for “HMRRLGTTEIAGILRREISQGILIAKERLPSERSLADTYGVARGTVRQALNLLAREGLVQIRRSSGAYVTF”, -0.458.
Consider “HMRRMAYLVGQRGLAMGDFISGTGQVRIGDTVWRAEAVEGELVRTGDTVVVEGAKMTTAIVRRVM”, for which the “soluble fraction (log2)” value was -1.81.
For “HMRRRKPLVSYEYGTRVYAPSEGEPRYRVVATDADGQRVFAKFSSEEAARHRAREIEGRLATS” the value was -0.26.
For “HMRRSSQQLTLTEVSTIKEMVTSEEYRHVPTGTLALLAQRLRKVFASSSTWYRLVRIYKWRRPRGRIH” the value was -0.329; for “HMRRSVYQANVLDAIKHLVDQNELATTKAIAEYIGDDYQGNVSRAIRELLADRKIKKLPKVGVLQPYEA”, -0.442; for “HMRRVEDVRTALEHFAAARNTTPMAMTLDQRREAMRELAASGLLNLRRALSEVAQTLGVARSTVYTYLP”, -1.39.
The figure for “HMRSAKEYKAIREEIYRFIGAYITKHVYAPSNKEIAEAVGISGTTVHRHLIDMIDEGILETD” is -2.65; for “HMRSFGTLRRLPSGRYQASYAGPDLRRHAAPTTFETKLDAEGWLRDEHRMIERDEWTAPAARSQLK” it is -0.0721.
On to “HMRSFRIGGLVEQGSIARDGQSLTVRFAVTDLAHKIPVTYTGLLPDLFKEGKGVVAEGKLGPDGVFHASQV”, for which the “soluble fraction (log2)” value is -0.0831.
The figure for “HMRSPIWKSITATLTAEIAGGQYRAGDKLPTEAELSQRFGVNRHTLRRALAEMAGAGLVVARRGAGVFVQG” is -2.5; for “HMRSPLYVQIKQHILGDIRKGVWKPGEKLPTELDLAERFGVSVGTVRRAMGGLEDEGIISRREGSGTFVRT” it is -0.458; for “HMRSSAATMFGRIALKNKLVDEATLKKVMSELPAGADLGAVLVKQGLISEQHAEAIQKKITAHMKSAP” it is -0.114.
With “HMRSSALDEIPGIGKQRKKNLLVHFTSVAKIKEASLDEIAAVPGMNRKAALVVVEFFQNQERE”, the “soluble fraction (log2)” value is -2.28.
As for “HMRSSNEAVSQRRDKILDYISATGRTSTEIVAKEFGVSVMTARRDLLYLMEKRLISKSSSGLFKVDNN”, the “soluble fraction (log2)” value was -3.09.
For “HMRTIGDSVYEKIKYDIVHLTLKPGEKLSEASLAEKYGISKAPIRVALRKLQEEGLIVIRPQSGSIVSP” the value was -1.19.

The record behind these values is the domain aggregation screens of Martell et al. (2025).
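Further: 20 min heating vs room temperature control held 20 min.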
